Article PMC3220584 (The Journal of Biological Chemistry, 2011)

Biological target: the molecule itself
Assay: SEC-MALS

B1: human collagen VI α3(VI) N-terminal N9-N1 region (domain or fragment, UniProt P12111 237-2028, looked up)
chain: AQDSADIIFLIDGSNNTGSVNFAVILDFLVNLLEKLPIGTQQIRVGVVQFSDEPRTMFSLDTYSTKAQVLGAVKALGFAGGELANIGLALDFVVENHFTRAGGSRVEEGVPQVLVLISAGPSSDEIRYGVVALKQASVFSFGLGAQAASRAELQHIATDDNLVFTVPEFRSFGDLQEKLLPYIVGVAQRHIVLKPPTIVTQVIEVNKRDIVFLVDGSSALGLANFNAIRDFIAKVIQRLEIGQDLIQVAVAQYADTVRPEFYFNTHPTKREVITAVRKMKPLDGSALYTGSALDFVRNNLFTSSAGYRAAEGIPKLLVLITGGKSLDEISQPAQELKRSSIMAFAIGNKGADQAELEEIAFDSSLVFIPAEFRAAPLQGMLPGLLAPLRTLSGTPEVHSNKRDIIFLLDGSANVGKTNFPYVRDFVMNLVNSLDIGNDNIRVGLVQFSDTPVTEFSLNTYQTKSDILGHLRQLQLQGGSGLNTGSALSYVYANHFTEAGGSRIREHVPQLLLLLTAGQSEDSYLQAANALTRAGILTFCVGASQANKAELEQIAFNPSLVYLMDDFSSLPALPQQLIQPLTTYVSGGVEEVPLAQPESKRDILFLFDGSANLVGQFPVVRDFLYKIIDELNVKPEGTRIAVAQYSDDVKVESRFDEHQSKPEILNLVKRMKIKTGKALNLGYALDYAQRYIFVKSAGSRIEDGVLQFLVLLVAGRSSDRVDGPASNLKQSGVVPFIFQAKNADPAELEQIVLSPAFILAAESLPKIGDLHPQIVNLLKSVHNGAPAPVSGEKDVVFLLDGSEGVRSGFPLLKEFVQRVVESLDVGQDRVRVAVVQYSDRTRPEFYLNSYMNKQDVVNAVRQLTLLGGPTPNTGAALEFVLRNILVSSAGSRITEGVPQLLIVLTADRSGDDVRNPSVVVKRGGAVPIGIGIGNADITEMQTISFIPDFAVAIPTFRQLGTVQQVISERVTQLTREELSRLQPVLQPLPSPGVGGKRDVVFLIDGSQSAGPEFQYVRTLIERLVDYLDVGFDTTRVAVIQFSDDPKVEFLLNAHSSKDEVQNAVQRLRPKGGRQINVGNALEYVSRNIFKRPLGSRIEEGVPQFLVLISSGKSDDEVDDPAVELKQFGVAPFTIARNADQEELVKISLSPEYVFSVSTFRELPSLEQKLLTPITTLTSEQIQKLLASTRYPPPAVESDAADIVFLIDSSEGVRPDGFAHIRDFVSRIVRRLNIGPSKVRVGVVQFSNDVFPEFYLKTYRSQAPVLDAIRRLRLRGGSPLNTGKALEFVARNLFVKSAGSRIEDGVPQHLVLVLGGKSQDDVSRFAQVIRSSGIVSLGVGDRNIDRTELQTITNDPRLVFTVREFRELPNIEERIMNSFGPSAATPAPPGVDTPPPSRPEKKKADIVFLLDGSINFRRDSFQEVLRFVSEIVDTVYEDGDSIQVGLVQYNSDPTDEFFLKDFSTKRQIIDAINKVVYKGGRHANTKVGLEHLRVNHFVPEAGSRLDQRVPQIAFVITGGKSVEDAQDVSLALTQRGVKVFAVGVRNIDSEEVGKIASNSATAFRVGNVQELSELSEQVLETLHDAMHETLCPGVTDAAKACNLDVILGFDGSRDQNVFVAQKGFESKVDAILNRISQMHRVSCSGGRSPTVRVSVVANTPSGPVEAFDFDEYQPEMLEKFRNMRSQHPYVLTEDTLKVYLNKFRQSSPDSVKVVIHFTDGADGDLADLHRASENLRQEGVRALILVGLERVVNLERLMHLEFGRGFMYDRPLRLNLLDLDYELAEQLDNIAEKA
stoichiometry N: 2
